Measurements as given in patent US20080268487.
Where two headings read alike, the source gives them in different places.

Legend:
GST-Rab8A (dog Rab8A) = GST-Rab8A (dog Rab8A) (UniProt P61007)
GST-Rab8B [GST: P08515] [1] = tested on: GST-Rab8B [GST: P08515]
GST-Rab2A [GST: P08515] [2] = tested on: GST-Rab2A [GST: P08515]
GST-Rab10 (human Rab10) [3] = tested on: T1, GST-Rab10 (human Rab10)
T1 sequence: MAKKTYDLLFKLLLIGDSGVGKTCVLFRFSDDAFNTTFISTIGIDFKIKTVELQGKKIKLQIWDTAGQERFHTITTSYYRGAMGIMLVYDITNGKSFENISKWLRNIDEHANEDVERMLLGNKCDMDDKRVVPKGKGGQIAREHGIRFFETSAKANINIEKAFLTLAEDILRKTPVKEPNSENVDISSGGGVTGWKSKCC

[4] = biological target: T2, GST-Rab8A (dog Rab8A), P61007
T2 chain: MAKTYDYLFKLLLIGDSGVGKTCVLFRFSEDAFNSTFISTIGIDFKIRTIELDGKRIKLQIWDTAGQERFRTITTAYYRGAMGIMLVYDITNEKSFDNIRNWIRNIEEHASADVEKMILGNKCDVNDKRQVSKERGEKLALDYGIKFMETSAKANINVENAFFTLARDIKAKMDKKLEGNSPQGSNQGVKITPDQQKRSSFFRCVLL

[5] = biological target: GST-Rab14 (mouse Rab14), Q91V41
GST-Rab14 (mouse Rab14), Q91V41, sequence (Q91V41 whole entry, looked up): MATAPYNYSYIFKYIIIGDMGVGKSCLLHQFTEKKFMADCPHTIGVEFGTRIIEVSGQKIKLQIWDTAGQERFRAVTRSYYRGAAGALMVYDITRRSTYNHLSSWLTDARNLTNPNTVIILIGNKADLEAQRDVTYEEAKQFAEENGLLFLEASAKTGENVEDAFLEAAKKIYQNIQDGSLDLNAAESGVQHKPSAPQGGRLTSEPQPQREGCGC

GST-Rab10 (human Rab10) [6] = biological target: T3, GST-Rab10 (human Rab10)
T3 chain: T1 sequence

GST-Rab8B [GST: P08515] [7] = biological target: GST-Rab8B [GST: P08515]; remark: listed apart in the source
GST-Rab2A [GST: P08515] [8] = biological target: GST-Rab2A [GST: P08515]; remark: listed apart in the source

GST-GAP Arg/Lys (GST-GAP domain with Arg973 mutated to Lys)
hydrolysis of Rab-bound [α^32P]GTP to GDP (thin layer chromatography) (GST-Rab8A (dog Rab8A)): For each of Rab 2A, 8A, 8B, 10, and 14, the GAP Arg/Lys construct exhibited no significant activity | hydrolysis of Rab-bound [α^32P]GTP to GDP (thin layer chromatography) (GST-Rab8B [GST: P08515] [1]): For each of Rab 2A, 8A, 8B, 10, and 14, the GAP Arg/Lys construct exhibited no significant activity | hydrolysis of Rab-bound [α^32P]GTP to GDP (thin layer chromatography) (GST-Rab2A [GST: P08515] [2]): For each of Rab 2A, 8A, 8B, 10, and 14, the GAP Arg/Lys construct exhibited no significant activity | hydrolysis of Rab-bound [α^32P]GTP to GDP (thin layer chromatography) (GST-Rab10 (human Rab10) [3]): For each of Rab 2A, 8A, 8B, 10, and 14, the GAP Arg/Lys construct exhibited no significant activity

B1: AS160 GAP domain-GST fusion protein (protein)
chain: GASRDELQSRKVKLDYEEVGACQKEVLITWDKKLLNCRAKIRCDMEDIHTLLKEGVPKSRRGEIWQFLALQYRLRHRLPNKQQPPDISYKELLKQLTAQQHAILVDLGRTFPTHPYFSVQLGPGQLSLFNLLKAYSLLDKEVGYCQGISFVAGVLLLHMSEEQAFEMLKFLMYDLGFRKQYRPDMMSLQIQMYQLSRLLHDYHRDLYNHLEENEISPSLYAAPWFLTLFASQFSLGFVARVFDIIFLQGTEVIFKVALSLLSSQETLIMECESFENIVEFLKNTLPDMNTSEMEKIITQVFEMDISKQLHAYEVEYHVLQDELQESSYSCEDSETLEKLERANSQLKRQNMDLLEKLQVAHTKIQALESNLENLLTRETKMKSLIRTLEQEKMAYQKTVEQLRKLLPADALANCDLLLRDLNCNPNNKAKIGNKP
hydrolysis of Rab-bound [α^32P]GTP to GDP (thin layer chromatography) [4]: the GAP domain markedly stimulated the hydrolysis of [α^32P]GTP bound to Rabs 2A, 8A, 8B, 10, and 14 | GAP activity in the presence of a 10-fold molar excess of GST as carrier protein [5]: the presence of excess GST did not inhibit the GAP activity | GAP assay with GST-GAP domain attached to glutathione beads [5]: the same molar amount of the GST-GAP domain attached to glutathione beads showed the expected activity against Rab14 | hydrolysis of Rab-bound [α^32P]GTP to GDP (thin layer chromatography) [5]: the GAP domain markedly stimulated the hydrolysis of [α^32P]GTP bound to Rabs 2A, 8A, 8B, 10, and 14 | kcat/Km [5]: a kcat/Km value of 0.2 min^-1 µmolar^-1 | rate of hydrolysis of the bound [α^32P]GTP with 130 nM GST-GAP domain [5]: approximately 3% per minute with 130 nM GST-GAP domain | hydrolysis of Rab-bound [α^32P]GTP to GDP (thin layer chromatography) (GST-Rab10 (human Rab10) [6]): the GAP domain markedly stimulated the hydrolysis of [α^32P]GTP bound to Rabs 2A, 8A, 8B, 10, and 14 | hydrolysis of Rab-bound [α^32P]GTP to GDP (thin layer chromatography) (GST-Rab8B [GST: P08515] [7]): the GAP domain markedly stimulated the hydrolysis of [α^32P]GTP bound to Rabs 2A, 8A, 8B, 10, and 14 | hydrolysis of Rab-bound [α^32P]GTP to GDP (thin layer chromatography) (GST-Rab2A [GST: P08515] [8]): the GAP domain markedly stimulated the hydrolysis of [α^32P]GTP bound to Rabs 2A, 8A, 8B, 10, and 14

B2: recombinant GAP domain without GST (protein)
chain: B1 chain
GAP activity compared with that of GST-GAP domain [5]: no difference was observed

B3: recombinant full-length FLAG-tagged AS160 (protein)
chain: MEPPSCIQDEPFPHPLEPEPGVSAQPGPGKPSDKRFRLWYVGGSCLDHRTTLPMLPWLMAEIRRRSQKPEAGGCGAPAAREVILVLSAPFLRCVPAPGAGASGGTSPSATQPNPAVFIFEHKAQHISRFIHNSHDLTYFAYLIKAQPDDPESQMACHVFRATDPSQVPDVISSIRQLSKAAMKEDAKPSKDNEDAFYNSQKFEVLYCGKVTVTHKKAPSSLIDDCMEKFSLHEQQRLKIQGEQRGPDPGEDLADLEVVVPGSPGDCLPEEADGTDTHLGLPAGASQPALTSSRVCFPERILEDSGFDEQQEFRSRCSSVTGVQRRVHEGSQKSQPRRRHASAPSHVQPSDSEKNRTMLFQVGRFEINLISPDTKSVVLEKNFKDISSCSQGIKHVDHFGFICRESPEPGLSQYICYVFQCASESLVDEVMLTLKQAFSTAAALQSAKTQIKLCEACPMHSLHKLCERIEGLYPPRAKLVIQRHLSSLTDNEQADIFERVQKMKPVSDQEENELVILHLRQLCEAKQKTHVHIGEGPSTISNSTIPENATSSGRFKLDILKNKAKRSLTSSLENIFSRGANRMRGRLGSVDSFERSNSLASEKDYSPGDSPPGTPPASPPSSAWQTFPEEDSDSPQFRRRAHTFSHPPSSTKRKLNLQDGRAQGVRSPLLRQSSSEQCSNLSSVRRMYKESNSSSSLPSLHTSFSAPSFTAPSFLKSFYQNSGRLSPQYENEIRQDTASESSDGEGRKRTSSTCSNESLSVGGTSVTPRRISWRQRIFLRVASPMNKSPSAMQQQDGLDRNELLPLSPLSPTMEEEPLVIFLSGEDDPEKIEERKKSKELRSLWRKAIHQQILLLRMEKENQKLEGASRDELQSRKVKLDYEEVGACQKEVLITWDKKLLNCRAKIRCDMEDIHTLLKEGVPKSRRGEIWQFLALQYRLRHRLPNKQQPPDISYKELLKQLTAQQHAILVDLGRTFPTHPYFSVQLGPGQLSLFNLLKAYSLLDKEVGYCQGISFVAGVLLLHMSEEQAFEMLKFLMYDLGFRKQYRPDMMSLQIQMYQLSRLLHDYHRDLYNHLEENEISPSLYAAPWFLTLFASQFSLGFVARVFDIIFLQGTEVIFKVALSLLSSQETLIMECESFENIVEFLKNTLPDMNTSEMEKIITQVFEMDISKQLHAYEVEYHVLQDELQESSYSCEDSETLEKLERANSQLKRQNMDLLEKLQVAHTKIQALESNLENLLTRETKMKSLIRTLEQEKMAYQKTVEQLRKLLPADALANCDLLLRDLNCNPNNKAKIGNKP
GAP assay with protein attached to anti-FLAG beads [4]: The full-length AS160 exhibited no significant activity above that of the Arg973Lys mutant with Rabs 2A, 8A, and 14 as substrates | GAP assay with protein attached to anti-FLAG beads [5]: The full-length AS160 exhibited no significant activity above that of the Arg973Lys mutant with Rabs 2A, 8A, and 14 as substrates | GAP assay with protein attached to anti-FLAG beads (GST-Rab2A [GST: P08515] [8]): The full-length AS160 exhibited no significant activity above that of the Arg973Lys mutant with Rabs 2A, 8A, and 14 as substrates
